In the supplement of paper PMC11811203:

B1: THAP1; numbered along this chain (parent)
chain: MVQSCSAYGCKNRYDKDKPVSFHKFPLTRPSLCKEWEAAVRRKNFKPTKYSSICSEHFTPDCFKRECNNKLLKENAVPTIFLCTEPHDKKEDLLEPQEQLPPPPLPPPVSQVDAAIGLLMPPLQTPVNLSVFCDHNYTVEDTMHQRKRIHQLEQQVEKLRKKLKTAQQRCRRQERQLEKLKEVVHFQKEKDDVSERGYVILPNDYFEIVEVPA

Variants of: B1
Experiment: THAP1 transcriptional activity (GFP+/GFP- enrichment relative to wild-type constructs) (ratio to WT); higher = more THAP1 activity (PSMB5 reporter activation)
Settings: with PSMB5 promoter-GFP reporter
Procedure: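 Deep mutational scan of human THAP1. Site-saturation single amino acid variant library (residues 2-213) was expressed by lentivirus at MOI ~0.3 in THAP1-knockout HEK-293T cells carrying an endogenous PSMB5 promoter-GFP knock-in reporter. Five days post-transduction, BFP+ cells were FACS-sorted into GFP dim and GFP bright populations and variants were counted by Illumina sequencing. Activity is the GFP-bright/GFP-dim read fold change, mean of 2 replicates, divided by the mean fold change of wild-type (synonymous) constructs in the same screen pool; WT = 1.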

THAP1 transcriptional activity: each site, then its substitutions
K73: Y 0.291, L 0.33, D 0.191, A 0.31, W 0.212, N 0.522, R 0.622, I 0.142, E 0.261, T 0.514, C 0.395, M 0.543, S 0.154, V 0.644, F 0.19, G 0.194, H 0.598, P 0.102, Q 0.273
V77: W 0.267, R 0.539, Q 0.318, N 0.195, M 0.439, F 0.325, H 0.287, Y 0.279, S 0.41, D 0.295, L 0.547, C 0.434, E 0.259, G 0.281, A 0.343
T59: N 0.386, M 0.544, L 0.372, P 0.248, Y 0.0936, V 0.269, K 0.423, Q 0.605, R 0.426, W 0.0856
L72: E 0.322, V 0.172, P 0.221, R 0.0764, G 0.189, S 0.092, A 0.17, C 0.148, Q 0.163, I 0.173, M 0.106, T 0.0921, N 0.129, K 0.0937, W 0.18, Y 0.172, D 0.169, H 0.134, F 0.177
N68: S 0.192, C 0.157, A 0.103, T 0.179, F 0.0942, V 0.125, Y 0.125, W 0.089, L 0.131, H 0.2, G 0.127, M 0.141, Q 0.193, D 0.0906, K 0.162, I 0.15, R 0.161, P 0.161
N69: G 0.122, Q 0.143, H 0.344, V 0.399, E 0.0951, T 0.226, L 0.301, M 0.597, P 0.092, S 0.193, W 0.0798, C 0.181, A 0.111, Y 0.261, I 0.672, D 0.131, K 0.133, R 0.216, F 0.109
C62: I 0.09, F 0.151, Q 0.74, A 0.523, N 0.487, E 0.143, H 0.173, T 0.195, G 0.113, W 0.113, D 1.01, K 0.21, P 0.0987, Y 0.141, M 0.591, S 1.72, R 0.181, V 0.0798
A76: E 0.444, P 0.384, Q 0.234, N 0.121, V 0.435, K 0.428, F 0.307, W 0.386, M 0.215, C 0.862, D 0.209, L 0.476, T 0.18, G 0.221, Y 0.191, I 0.165
D61: A 0.309, V 0.101, R 0.22, P 0.104, Q 0.282, M 0.207, I 0.133, C 0.198, Y 0.127, T 0.368, S 0.312, G 0.219, L 0.209, H 0.228, F 0.173, N 0.472, K 0.217, W 0.145
N75: M 0.658, R 0.829, H 0.567, K 0.45, G 1.42, Q 0.684, W 0.844, C 0.38, Y 0.177, A 0.373, F 0.875, E 0.468, D 0.507, L 0.286, P 0.241, T 0.612, V 0.214, I 0.302
E66: V 0.638, Y 0.777, K 0.629, N 2.46, I 0.457, S 1.14, T 1.3, C 1.21, F 0.996, Q 0.814, A 1.36, L 0.436, W 1.25, R 0.539, M 0.558, P 0.346
C67: K 0.472, A 0.639, E 0.119, L 0.481, P 0.13, R 0.502, G 0.127, H 0.198, Y 0.2, S 0.964, Q 0.239, D 0.135, N 0.17, F 0.147, T 1.19, W 0.116, I 0.198, V 0.777, M 0.594
E74: Q 1.17, M 0.293, N 0.686, G 0.501, F 1.09, I 0.327, V 0.618, R 0.858, D 0.59, Y 0.453, S 0.604, L 0.384, T 0.334, H 0.512, C 0.522, P 0.952, A 0.445, W 0.598
P60: M 0.374, A 0.758, H 0.509, R 0.718, T 0.758, F 0.333, W 0.256, Y 0.259, D 0.532, E 0.745, Q 1.17, K 0.834, L 0.35, G 0.443, C 0.174, S 0.985, N 0.844
L71: W 0.259, K 0.533, V 1.47, G 0.187, C 1.42, R 0.39, F 0.361, S 0.483, D 0.74, H 0.403, Y 0.309, Q 0.432, E 0.221, I 1.07, T 0.52, N 0.266, M 0.941, A 0.407, P 0.113
R65: F 0.208, A 0.63, G 0.424, Y 0.369, H 0.327, E 0.629, W 0.212, N 0.596, Q 0.982, C 0.173, S 0.735, T 0.797, I 0.626, D 0.388, P 0.671, V 0.559, M 0.623, L 1.04
F63: C 0.139, G 0.1, Q 0.0896, M 0.089, H 0.0911, T 0.128, P 0.103, D 0.063, L 0.0863, I 0.134, Y 0.623, W 0.473, R 0.084, A 0.117, E 0.0925, S 0.0787, N 0.14, V 0.082
K70: M 0.175, Y 0.12, G 0.0856, R 2.14, S 0.325, Q 0.437, T 0.397, E 0.134, F 0.163, D 0.0985, A 0.434, H 0.709, N 0.476, P 0.178, I 0.33, L 0.121, C 0.313, W 0.129, V 0.479
P78: A 0.526
K64: N 0.237, L 0.145, S 0.123, G 0.219, P 0.104, I 0.159, W 0.0652, H 0.0785, A 0.0797, F 0.102, E 0.188, Q 0.25, V 0.215, M 0.112, T 0.115, Y 0.0778, R 1.06, C 0.0975, D 0.151
